Source: US20040233833A1, “Methods for identifying compounds with thrapeutic potential for treatment of central Neurodegenerative diseases resulting from abnormal protein or peptide accumulation” (priority 2001, published 2004)

Legend:
[1] = biological target: T1, Human red blood cell proteasomes (Homo sapiens, UniProt P28072+P28074+Q99436); assay: Activation of fluorogenic peptide hydrolysis by the proteasome in the presence of REG variants; type: biochemical
T1 construct: Human red blood cell proteasomes; from tissue; host or cells: human red blood cells
Experimental: Human red blood cell proteasomes (170 ng) were mixed with increasing amounts of purified REG variants. The reactions were started by adding 50 μl of 200 μMscu-LLVY-MCA, Boc-LRR-MCA, or Boc-LLE-βNA in 10 mM Tris, pH 7.5. After a 10 min incubation, the reaction was quenched with 200μl of cold 100% ethanol, and the released MCA or βNA ws measured fluometrically. Each data point represents the mean of three measurements from a single experiment. […] REGα (▪), REGγ(□), REGγ(K188E) or REGγ(K188D) (●), REGγ(K188H) (∘), REGγ(K188Q) or REGγ(K188N) (Δ), REGγ(K188A) (♦). The data for REGγ(K188E) and REGγ(K188D) and for REGγ(K188Q) and REGγ(K188N) were combined since their activities were indistinguishable.
Because each positive variant identified in the previous example included a mutation at Lys188, site-directed mutagenesis was used to generate a series of amino acid substitutions at this residue. Twelve mutants were constructed in which Lys188 of REGγ was changed to Ala, Arg, Asn, Asp, Cys, Gln, Glu, His, Ile, Phe, Pro, or Ser. Wild-type REGγ and the Lys 188 variants were expressed in E. coli, purified, and the activation specificity of each protein was measured using the diagnostic peptides LLVY (SEQ ID NO:1)-MCA, LRR-MCA, and LLE-βNA. Except for the K188R variant, all Lys 188 mutants stimulated the hydrolysis of LRR-MCA by the proteasome to the same extent or slightly better than wild-type REGγ. Substitution of negatively-charged Glu or Asp for the positively-charged Lys188 produced mutants with activation properties almost identical to REGα.
To determine the degree to which the activation specificity of REGγ(K188E/D) variants matches that of REGα, proteasomal cleavage of a series of fluorogenic peptides was measured in the presence of each activator.

[2] = Heptamer stability on rechromatography (Superdex 200 size exclusion column); type: physicochemical
Description: To examine the effect of Lys188 substitution on REGγ heptamer stability, the wildtype and Lys 188 variant heptamers were rechromatographed on the Superdex 200 (26/60) size exclusion column used for purification. […] Replacement of Lys 188 by Pro or Phe severely affected the stability of REGγ heptamer.

proteasome [3] = biological target: T2, proteasome (Homo sapiens, UniProt P28072+P28074+Q99436); assay: REGα(N146Y)/REGβ(N135Y) competition assay for relative proteasome affinity; type: binding; settings: in terms of REGα(N146Y)/REGβ(N135Y) competition; wild-type REGγ 100
Description: As a measure of the relative affinities of REGγ and the REGγLys188 mutants for the proteasome, a competition assay was used. See Li et al. (2000), The Proteasome Activator 11S REG or PA28: Chimeras Implicate Carboxyl-Terminal Sequences in Oligomerization and Proteasome Binding But Not in the Activation of Specific Proteasome Catalytic Subunits. J. Mol. Biol. 299:641-54. All REGγLys188 mutants were relatively resistant to REGα(N146Y)/REGβ(N135Y) competition with apparent proteasome affinities varying from 40% to 90% that of wild-type REGγ.

[4] = biological target: proteasome β subunits (T, CT/PGPH) (Homo sapiens, UniProt P28072+P28074+Q99436); assay: Affinity labeling of proteasome β subunits with 125I-YL3-VS in the presence of REGs; type: biochemical; settings: mean±S.D.
Description: To obtain estimates of substrate access to the proteasome's central chamber in the presence of REGγ and REGγ(K188E), the active site-directed probe, ^125I-YL3-VS, which covalently modifies all three active β-subunits in an activity dependent manner, was used. […] The phosphoimages show increased labeling of CT/PGPH and T subunits in the presence of REGγ and REGγ(K188E). The data further reveal that REGγ increased the rate of T-subunit labeling 4.7±2.6 (mean±S.D.) fold and the rate of CT/PGPH labeling 4.4±1.7 (mean±S.D.) fold over that seen with proteasome alone. Stimulation by the mutant REGγ(K188E) was greater, being 10.8±4.9 (mean±S.D.) fold for the T-subunit and 11.9±4.8 (mean±S.D.) fold for the CT/PGPH subunit. […] The finding that REGγ increased labeling of the CT and PGPH subunits was unexpected as the wild type activator suppresses hydrolysis of the CT substrate sLLVY (SEQ ID NO:1)-MCA.

proteasomes [5] = biological target: T3, proteasomes (Homo sapiens, UniProt P28072+P28074+Q99436); assay: Proteasomal degradation of fluorescein-labeled polyQ peptides (molecular exclusion chromatography); type: biochemical; settings: proteasome + activator, 5 hr incubation
Experimental: The following peptides were synthesized using routine peptide synthesis:
Each peptide was incubated for 5 hr with proteasomes alone, proteasomes+REGγ, proteasome+REGγ(K188E) or proteasomes+REGα/β. Degradation was assayed by molecular exclusion chromatography using fluorescein as a signal (see FIG. 2). The degradation products were identified by HPLC-MS (FIG. 3). […] By contrast, in the presence of REGγ(K188E) the various polyQ peptides were degraded 5 to 10-fold faster.

proteasome [6] = biological target: T2, proteasome; assay: Proteasomal hydrolysis of natural peptides P21 and BBC1 (HPLC); type: biochemical; settings: 21-residue peptide P21; result in words
Experimental: Proteasomal hydrolysis of a 21 -residue peptide (P21) and a 49-residue peptide (BBC1) were prepared as described by Zhang et al. (1998), Proteasome Activation by REG Molecules Lacking Homolog-specific Inserts, J. Biol. Chem. 273:9501-09. Digestion products were applied to a C18 HPLC column and separated with a gradient of 0-45% acetonitrile containing 0.1% trifluoroacetic acid. To identify the products derived from P21, fractions were collected manually, concentrated, and subjected to mass spectrometry.

proteasomes [7] = biological target: T3, proteasomes; assay: Proteasomal degradation of the fluorescein-tagged C31 peptide of APP; type: biochemical; settings: result in words
Experimental: A 31-residue C-terminal peptide (C31) of APP, the transmembrane protein that gives rise to amyloid plaque forming Aβ peptides characteristic of Alzheimer's disease, was synthesized using routine peptide synthesis. A fluorescein tag was added to the peptide. C31 peptide is cytotoxic. See Lu et al. (2000), a Second Cytotoxic Proteolytic Peptide Derived from Amyloid Beta-Protein Precursor, Nat. Med. 6:397-404.
The C31 was incubated with proteasomes alone, proteasomes+REGγ, proteasome+REGγ(K188E) or proteasomes+REGα/β, and degradation was assayed as described in Example 8.

[8] = biological target: T1, Human red blood cell proteasomes; assay: Activation of fluorogenic peptide hydrolysis by the proteasome in the presence of REG variants; type: biochemical; remark: listed apart in the source

## γK188E: mutant REGγ in which Lys188 was changed to Glu
[1]; small fluorogenic peptides, result in words
  Activation properties compared with REGα: virtually identical to REGα
[1]; substrate LLE-βNA (PGPH site)
  Stimulation of cleavage (x-fold) LLE: 9 x-fold
[1]; substrate LLVY-MCA (chymotrypsin-like site)
  Stimulation of cleavage (x-fold) LLVY: 14 x-fold
[1]; substrate LRR-MCA (trypsin-like site)
  Stimulation of cleavage (x-fold) LRR: 15 x-fold
[2]; Superdex 200
  Heptamers dissociated during the second gel filtration: More than half
[2]; after second gel filtration
  Percent heptamer: 50%
Proteasome [3]
  Relative affinity for proteasome: 90
[4]
  Increase in rate of CT/PGPH labeling over proteasome alone: 11.9±4.8 fold
  Increase in rate of T-subunit labeling over proteasome alone: 10.8±4.9 fold
Proteasomes [5]
  % Degraded, substrate F1-EPQPQ: 80%
  % Degraded, substrate F1-KSQPQ: 80%
  % Degraded, substrate F1-QHQ: 50%
  % Degraded, substrate F1-QPQ: 50%
  % Degraded, substrate F1-QQQ: >95%
Proteasome [6]
  Hydrolysis of P21 by the proteasome: markedly increased
Proteasomes [7]
  Degradation of C31 peptide by proteasomes: extensively degraded
[8]; result in words
  Cleavage of peptides diagnostic for the CT-like or PGPH active sites: substantially more than REGγ
[8]; substrate AAF-MCA
  Stimulation of cleavage (x-fold) AAF-MCA: 4 x-fold
[8]; substrate DEVD(SEQ ID NO: 8)-MCA
  Stimulation of cleavage (x-fold) DEVD-MCA: 8 x-fold
[8]; substrate FSR-MCA
  Stimulation of cleavage (x-fold) FSR-MCA: 7 x-fold
[8]; substrate IEGR(SEQ ID NO: 5)-MCA
  Stimulation of cleavage (x-fold) IEGR-MCA: 2 x-fold
[8]; substrate IETD(SEQ ID NO: 6)-MCA
  Stimulation of cleavage (x-fold) IETD-MCA: 21 x-fold
[8]; substrate LGHD(SEQ ID NO: 7)-MCA
  Stimulation of cleavage (x-fold) LGHD-MCA: 10 x-fold
[8]; substrate LY-MCA
  Stimulation of cleavage (x-fold) LY-MCA: 3 x-fold
[8]; substrate VLK-MCA
  Stimulation of cleavage (x-fold) VLK-MCA: 6 x-fold
[8]; substrate YVAD(SEQ ID NO: 9)-MCA
  Stimulation of cleavage (x-fold) YVAD-MCA: 7 x-fold
